The source of these data is US20260069689A1 (Regeneron, published 2026).

As usually defined, the Kd is the equilibrium constant for the complex coming apart. High values mean lower affinity, low ones higher affinity. For orientation: koff means the first-order rate constant of dissociation. A high value points to fast dissociation. As a reminder, the kon is the second-order rate constant of association. A low value points to slower complex formation. In general, t½ refers to how long it takes for the measured level to halve.

This assay deals with SARS-COV-2 RBD extracellular domain expressed with a C-terminal myc-myc-hexahistidine tag (SARS-COV-2 RBD-mmH) (SARS-CoV-2). The assay is described as follows: SPR Biacore, mAb captured on anti-hFc, RBD-mmH analyte, 37 C.

B1: mAb14247 (antibody, V domains shown)
VH: QITLKESGPTLVKPTQTLTLTCTFSGFSLSTSAVGVGWIRQPPGKALEWLALIYWDDDKRYSPSLKSRLTITKDTSKNQLVLTMTNVDPVDTATYYCAHHTIQLIFDYWGQGTLVTVSS
VL: QSALTQPASVSGSPGQSITISCTATSSDVGNYNYVSWYQQHPGKAPKLMIYEVSNRPSGVSNRFSGSKSGNTASLTISGLQAEDEADYYCSSYTSSSTPLVFGGGTKLTVLG
On to B1, for which the Kd was 1.95 nM, the koff was 0.00163 s⁻¹, the kon was 832000 M⁻¹ s⁻¹ and the t½ came to 7.1 min.

B2: mAb14281 (antibody, V domains shown)
VH: QVQLVQSGADVKKPGASVKVSCKTSGYIFTGYYIHWVRQAPGQGLEWMGWINPNSGGTNSAQKFQGRVTMTRDTSISTVYMELSRLRSDDTAVYYCAKSNSFSVLDYNFDYWGQGTLVTVSS
VL: SSELTQDPAVSVALGQTVRITCQGDSLRSYYASWYQQKPGQAPVLVIYDKNNRPSGIPDRFSGSSSGNTASLTITGAQAEDEADYYCNSRDSSRNHLVVFGGGTKLTVLG
Take B2: the Kd was 5.2 nM, the koff came out at 0.00582 s⁻¹, the kon is 1.12e+06 M⁻¹ s⁻¹ and the t½ was 2 min.

B3: mAb14255 (antibody, V domains shown)
VH: QVQLQESGPGLVKPSETLSLTCTVSGGSISGYYWSWIRQPPGKGLDWIGYIYYRGNTNYNPSLKSRVTISVDTSNNQFSLKLSSVTAADTAVYYCARYGEGYGDASGYHFDYWGQGTLVTVSS
VL: QSALTQPASVSGSPGQSITISCTGTSSDVGSYNLVSWYQQHPGKAPKLMIYEDSKRPSGVANPFSGSKSGNTASLTISGLQAEDEADYYCSSYAGSSTWVFGGGTKLTVLG
B3 yielded a Kd of 2.76 nM, a koff of 0.00535 s⁻¹, a kon of 1.94e+06 M⁻¹ s⁻¹ and a t½ of 2.2 min.

B4: mAb14312 (antibody, V domains shown)
VH: EVQLVESGGGLVQPGGSLRLSCAASGFTVSRSYMTWVRQAPGKGLEWVSVIFTGGRTDHADSVKGRFTISRHNSKNTLYLQMNSLRTEDTAVYYCARVAIVGATGAFDIWGQGTMVTVSS
VL: QSVLTQPPSVSGAPGQRVTISCTGSSSNIGAGDDVHWYQQLPGTAPKLLIYGNSNRPSGVPDRFSGSKSGTSASLAITGLQAEDEADYYCQSYDSSLSGSVVFGGGTKLTVLG
Take B4: the affinity, expressed as Kd, was 0.631 nM; the koff is 0.000988 s⁻¹; the kon amounted to 1.57e+06 M⁻¹ s⁻¹; the t½ was 11.7 min.

B5: mAb14257 (antibody, V domains shown)
VH: EVQLVESGGGLVQPGGSLRLSCAASGFTVSRSYMNWVRQAPGKGLEWVSVVFTGGTTKHTDSVKGRFTISRDNSMNTLYLQMNSLRPEDTAVYYCARVAIVETTGAFDIWGQGTMVTVSS
VL: QSVLTQPPSVSGAPGQRVTISCTGTSSNIGADFDVHWYQQFPGTAPKLLIYGHTNRPSGIPDRFSGSKSGTSASLAITGLQAEDEADYYCQSYDSSLSGSVVFGGGTKLTVLG
As to B5, the Kd turned out to be 2.34 nM, the koff is 0.00762 s⁻¹, the kon came to 3.26e+06 M⁻¹ s⁻¹ and the t½ was found to be 1.5 min.

B6: mAb14283 (antibody, V domains shown)
VH: QVQLQESGPGLVKPSGTLSLTCDVSGGSISSNNWWSWVRQRPGKGLQWIGEIYHNENTNYNPSLKSRVIMSIDKSKNQFSLKLTSVTAADTAVYYCARGDVLDWFDPWGQGTLVTVSS
VL: QSALTQPASVSGSPGQSTTISCTGTSSDVGGYNYVSWYQQYPGKAPKLMIYDVTNRPSGVSHRFSGSKSGNTASLTISGLQAEDEADYYCSSYTSSSTVIFGGGTKLTVLG
Regarding B6, the Kd was found to be 1.17 nM, the koff turned out to be 0.00179 s⁻¹, the kon came to 1.54e+06 M⁻¹ s⁻¹ and the t½ was 6.4 min.

B7: mAb14286 (antibody, V domains shown)
VH: QVQLVQSGAEVKKPGASVKVSCKASGYTFTDYFIHWVRQAPGQGLEWMGWINPTSGGTNYAQKFRGRVTMTRDTSISTAYVELSRLRSDDTALYYCARDLPFYSDTKQFDYWGQGTLVTVSS
VL: QSALTQPASVSGYPGQSITISCTGTSSDVGGYNYVSWYQQHPGKAPKLMIFDVSNRPSGVSNRFSGSKSGNTASLTFSGLQAEDEADYYCSSYTSSSTLVFGGGTKLTVLG
Take B7: the Kd was 3.07 nM, the koff amounted to 0.0104 s⁻¹, the kon is 3.38e+06 M⁻¹ s⁻¹ and the t½ amounted to 1.1 min.

B8: mAb14289 (antibody, V domains shown)
VH: QVQLVQSGPEVKKPGASVKVSCKASGYTFTSYAISWVRQAPGQGLEWMGWISAYNGNTNYAQKLQGRVTMTTDTFTSTAYMELRSLRSDDTAVYYCAVPADHITFDYWGQGTLVTVSS
VL: EIVLTQSPGTLSLSPGERATLSCRASQSVSSYLAWYQQKPGQAPRLLIHGASSRATGIPDRFSGSGSGTDFTLTISRLEPEDFAVYYCQQYGSSFLTFGGGTKVEIKR
In the case of B8, the Kd worked out at 1.46 nM, the koff was found to be 0.00176 s⁻¹, the kon stood at 1.2e+06 M⁻¹ s⁻¹ and the t½ came out at 6.5 min.

B9: mAb14294 (antibody, V domains shown)
VH: EVQLVESGGGLVQPGGSLRLSCAASGFTFSNHWMDWVRQAPGKGLVWVSRINSDGSSTDYADSVRGRFTMSRDNAKNTLYLQMSSLRAEDTAVYYCAREGMIFGAVIIPGWYFDLWGRGALVTVSS
VL: EIVLTQSPGTLSLSPGERATLSCRASQSVSSSQLAWYQQKPGQAPRLLIYGASSRATGIPDRFSGSGSGTDFTLTISRLEPEDFAVYYCQQYDSFGQGTKLEIKR
For B9, the Kd stood at 0.984 nM, the koff is 0.00059 s⁻¹, the kon was found to be 600000 M⁻¹ s⁻¹ and the t½ was found to be 19.6 min.

B10: mAb14282 (antibody, V domains shown)
VH: QVQLVQSGAEVKKPGASVKVSCKASGYIFTDHYMHWVRQAPGQGLEWMGWINPNSGATNYAQNFQGRVTMTRDTSIITVYMELSRLRSDDTAVYYCARDSSPYMIRYTMDVWGQGTTITVSS
VL: QSALTQPASVSGSPGQSITISCTGTSSDVGSYNLVSWYQQHPGKAPKLMIYELTKRPSGVSNRFSGSKSGNTASLTISGLQAEDEADYYCSSYRGSVTDVVFGGGTKLTVLG
B10 gave a Kd of 5.37 nM, a koff of 0.0106 s⁻¹, a kon of 1.98e+06 M⁻¹ s⁻¹ and a t½ of 1.1 min.

B11: mAb14258 (antibody, V domains shown)
VH: QLQLQESGPGLVKPSETLSLICTGSGDSISSSHYYWGWIRQPPGKGLEWIGSTYFSGSTYYNPSLKSRVSISVDTSKNQVSLKLISVTAADTAVYYCAREMGATLGDYWGPGTLVTVSS
VL: QSVLTQPPSASGTPGQRVTISCSGSSSNIGNNYVYWYQQFPGTTPRLLIYRNNERPSGVPDRFSGSKSGTSASLVISGLRSEDEADYYCAAWDDSLSAHYVFGTGTKVTVLG
B11 registered a Kd of 0.796 nM, a koff of 0.0017 s⁻¹, a kon of 2.14e+06 M⁻¹ s⁻¹ and a t½ of 6.8 min.

B12: mAb14313 (antibody, V domains shown)
VH: EVQLVESGGGLVQPGRSLRLSCVASGFTFDDSAMHWVRQPPGKGLEWVSGISWNSGIIGYAESVKGRFIISRDNAKNSLFLHMRGLRPEDTAVYYCARDRLELSYYYYGMDVWGQGTTVTVSS
VL: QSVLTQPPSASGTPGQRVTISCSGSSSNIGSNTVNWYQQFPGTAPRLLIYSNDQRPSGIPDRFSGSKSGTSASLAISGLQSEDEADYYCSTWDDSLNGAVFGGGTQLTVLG
In turn, B12 returned a Kd of 0.921 nM, a koff of 0.00259 s⁻¹, a kon of 2.81e+06 M⁻¹ s⁻¹ and a t½ of 4.5 min.

B13: mAb13458 (antibody, V domains shown)
VH: EVQLVESGGGLVQPGRSLRLSCAASGFTFDDYAMHWVRQAPGKGLEWVSGISWNSGSIGYADSVKGRFTISRDNAKNSLYLQMNSLRAEDTALYYCAKDIGITTPYWGQGTLVTVSS
VL: AIQMTQSPSSLSASVGDRVTITCRASQDIRNDLGWYQQKPGKAPKLLIYSASSLQTGVPSRFSGSGSGTDFTLTISSLHPEDFATYYCLQDYWYTWTFGQGTKVEIKR
With B13, the Kd amounted to 1.54 nM, the koff amounted to 0.00139 s⁻¹, the kon was determined as 907000 M⁻¹ s⁻¹ and the t½ came out at 8.3 min.

B14: mAb13459 (antibody, V domains shown)
VH: EVQLVESGGGLVQPGRSLRLSCAASGFTFDDYAMHWVRQAPGKGLEWVSGISWNSGSIGYADSVKGRFTISRDNAKNSLYLQMNSLRAEDTALYYCAKDIGITTPYWGQGTLVTVSS
VL: AIQMTQSPSSLSASVGDRVTITCRASQDIRNDLGWYQQKPGKAPKLLIYSASSLQTGVPSRFSGSGSGTDFTLTISSLHPEDFATYYCLQDYNYVWTFGQGTKVEIKR
As for B14, the Kd came out at 2.6 nM, the koff turned out to be 0.00204 s⁻¹, the kon amounted to 786000 M⁻¹ s⁻¹ and the t½ worked out at 5.7 min.

B15: mAb14284 (antibody, V domains shown)
VH: QITLKESGPTLVKPTQTLTLTCTFSGFSFSTSGVGVGWIRQPPGKTLEWLALIYWDDDKRYSPSLKSRLTITKDTSKNQVVLTMTNMDPVDTATYFCAHHGIPTIFGYWGQGALVTVSS
VL: QSALTQPASVSGSPGQSITISCTGTSSDLGVFNYVSWYQQHPGKAPKLMIYEVTNRPSGVSNRFSGSKSGNTASLTISGLQAEDEADYYCSSYTTSSTVFGGGTKLTVLG
B15 registered a Kd of 0.94 nM, a koff of 0.000605 s⁻¹, a kon of 644000 M⁻¹ s⁻¹ and a t½ of 19.1 min.

B16: mAb14235 (antibody, V domains shown)
VH: QITLKESGPTLVKPTQTLTLTCTFSGFSLNTGGVGVGWIRQPPGNALEWLALIYWDDDKRYNPSLKTRLTISKDTSKNQVVLTMTNMDPVDTATYFCAHLTIAVIVDFWGQGTLVTVSS
VL: QSALTQPASVSGSPGQSITISCTATSSDVGTYNYVSWFQHHPGKAPKLMIYEVTNRPSGVSNRFSGSKSGNTASLTISGLQAEDEADYYCSSYTTTSIVFGGGTKLTVLG
On to B16, for which binding was characterised by a dissociation constant (Kd) of 1.37 nM, the koff is 0.00109 s⁻¹, the kon was 793000 M⁻¹ s⁻¹ and the t½ stood at 10.6 min.

B17: mAb14315 (antibody, V domains shown)
VH: QVQLVQSGAEVKKPGSSVKVSCKASGDTFSTYAINWVRQAPGQGLEWMGRFIHIFGTANYAQKFQGRVTITADESTSTAYMELRSLRSEDTAVYYCARDGVDYGDYRPDYWGQGTLVTVSS
VL: EIVLTQSPGTLSLSPGERATLSCRASQSVSSNYLAWYQQKPGQAPRLLIYGASSRATGIPERFSGSGSGTDFTLTISRLEPEDFAVYYCQQYGSSLYTFGQGTKLEIKR
In turn, B17 yielded an equilibrium dissociation constant (Kd) of 2.26 nM, a koff of 0.000985 s⁻¹, a kon of 435000 M⁻¹ s⁻¹ and a t½ of 11.7 min.
